According to the supplement of paper PMC10126150:
± gives the standard deviation of the averaged measurements.

Test system: ATP
Experiment: switch fluorescence ratio, 500 uM ATP over buffer (Cy3 cluster intensity, sum of 5 cycles each) (fold (ratio)); higher = stronger signal-on switching upon ATP binding; sequences stand for … in TCGTCGGCAGCGTCAGATGTGTATAAGAGACAGTTTTTTTTTTTTTTTTTTTTTTTTT…TC
Conditions: aptamer strand: ATP DNA aptamer (quencher-CACCTGGGGGAGTATTGCGGAGGAAGG + anchor), 100 nM annealed; ATP concentration: 500 uM
Procedure, shortened: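 Cy3-labelled switching-strand clusters on a modified Illumina MiSeq flow-cell were annealed to 100 nM quencher-labelled ATP aptamer, imaged in selection buffer, then imaged after 15 min with 500 uM ATP at 22 °C. Five buffer/ATP cycles ran, with NaOH stripping and re-annealing between them. The fluorescence ratio is summed target-cycle over summed buffer-cycle Cy3 intensity per cluster, averaged per switch-domain sequence. Clusters outside 100-1000 RFU were excluded.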
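Also: ATP exposure 15 min at 22 °C before imaging.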

Sequence | switch fluorescence ratio
TTCTAATTTT | 0.995 ± 0.027
TTCTAGCGAA | 1.17 ± 0.22
TTCTAGCTTG | 1.01 ± 0.047
TTCTAGGAAT | 1.02 ± 0.059
TTCTAGTTAC | 1.047 ± 0.0056
TTCTATTTAA | 1.02 ± 0.029
TTCTCCGGTT | 1.31 ± 0.29
TTCTCGGTTT | 1.02 ± 0.025
TTCTCTAGAT | 1.056 ± 0.0066
TTCTCTATTT | 0.983 ± 0.028
TTCTGAAGC | 3.69 ± 1
TTCTGAATAT | 1.01 ± 0.024
TTCTGGCACG | 1.12 ± 0.18
TTCTGGGGGG | 0.991 ± 0.027
TTCTGGTCTA | 0.986 ± 0.011
TTCTGTGGAA | 1.04 ± 0.036
TTCTGTTAAA | 1.02 ± 0.027
TTCTGTTATT | 1.11 ± 0.21
TTCTGTTGAC | 1.7 ± 0.95
TTCTGTTTTT | 1.09 ± 0.15
TTCTTAAAAA | 0.993 ± 0.026
TTCTTACTGG | 0.995 ± 0.021
TTCTTAGAAA | 0.991 ± 0.019

Sequence | switch fluorescence ratio
TTCTTCGGGC | 1.08 ± 0.077
TTCTTGACTT | 1.02 ± 0.011
TTCTTGATTT | 1 ± 0.035
TTCTTGCTGG | 0.997 ± 0.019
TTCTTGGGTA | 0.989 ± 0.011
TTCTTTATAT | 0.9721 ± 0.005
TTCTTTATGG | 0.973 ± 0.028
TTCTTTGATT | 1 ± 0.011
TTCTTTGGTT | 0.9889 ± 0.0055
TTCTTTGTTT | 1.01 ± 0.024
TTCTTTTACG | 1.049 ± 0.0082
TTCTTTTATA | 0.99 ± 0.04
TTCTTTTTAT | 0.982 ± 0.03
TTCTTTTTCA | 1.06 ± 0.067
TTGAAAAAAT | 1.06 ± 0.13
TTGAAACCGG | 0.998 ± 0.017
TTGAAATTAC | 1.03 ± 0.065
TTGAAGAGG | 1.02 ± 0.035
TTGAAGGCGT | 1 ± 0.026
TTGAAGTTAT | 0.9897 ± 0.0021
TTGAAGTTCG | 0.986 ± 0.022
TTGAAGTTTT | 0.991 ± 0.039
TTGAATACCC | 1.052 ± 0.008

Sequence | switch fluorescence ratio
TTGAATGCCA | 0.99 ± 0.028
TTGAATGCCG | 1.04 ± 0.035
TTGAATGGGG | 1.05 ± 0.043
TTGAATGTTG | 1.004 ± 0.0037
TTGAATGTTT | 0.992 ± 0.059
TTGAATTTTA | 0.999 ± 0.033
TTGACAGGGC | 0.952 ± 0.057
TTGACATGC | 1.01 ± 0.044
TTGACCCAGG | 1.23 ± 0.11
TTGACCGCTG | 1.16 ± 0.03
TTGACCTTTG | 1.01 ± 0.011
TTGACGAGTA | 1.1 ± 0.13
TTGACGGGGG | 1.01 ± 0.03
TTGACGTGCC | 1.021 ± 0.0033
TTGACTGGG | 0.991 ± 0.023
TTGACTGGTG | 1.02 ± 0.013
TTGACTTGTG | 0.971 ± 0.022
TTGAGCATTT | 0.982 ± 0.03
TTGAGCCCCG | 0.951 ± 0.047
TTGAGCGAGG | 0.961 ± 0.01
TTGAGCTAGA | 0.971 ± 0.025
TTGAGGATCA | 1.02 ± 0.029
TTGAGGATGT | 1 ± 0.034

Sequence | switch fluorescence ratio
TTGAGGGATA | 1.01 ± 0.055
TTGAGGGGGC | 1.01 ± 0.05
TTGAGGGGGG | 1.01 ± 0.048
TTGAGGGTTG | 0.987 ± 0.037
TTGAGGTTGT | 0.99 ± 0.028
TTGAGTAATG | 1.01 ± 0.017
TTGAGTGAAA | 0.999 ± 0.0017
TTGAGTGACG | 0.9845 ± 0.0025
TTGAGTTAAA | 0.991 ± 0.037
TTGAGTTATT | 0.96 ± 0.031
TTGATAAAGG | 1.02 ± 0.026
TTGATAAAGT | 0.997 ± 0.0043
TTGATACGTG | 1.01 ± 0.058
TTGATATTTT | 1.04 ± 0.096
TTGATCAACG | 0.995 ± 0.014
TTGATCACTT | 1.001 ± 0.005
TTGATCAGGC | 0.996 ± 0.016
TTGATCCGAC | 1.35 ± 0.25
TTGATCCGCT | 1.74 ± 0.47
TTGATCGGTG | 0.999 ± 0.023
TTGATCTGGT | 1.01 ± 0.027
TTGATGAAAA | 1 ± 0.038
TTGATGCAA | 1.07 ± 0.028

Sequence | switch fluorescence ratio
TTGATGCGTT | 1.01 ± 0.015
TTGATGGCGA | 1.22 ± 0.3
TTGATGGGTG | 0.995 ± 0.015
TTGATGGTGC | 1.05 ± 0.038
TTGATTAAGA | 1.06 ± 0.078
TTGATTAGGC | 1.06 ± 0.029
TTGATTCAAT | 1.17 ± 0.33
TTGATTCG | 1.015 ± 0.0037
TTGATTCGT | 0.99 ± 0.02
TTGATTTAAA | 1.01 ± 0.0047
TTGATTTATA | 0.983 ± 0.042
TTGATTTGCA | 0.99989 ± 0.00088
TTGATTTGGT | 1 ± 0.011
TTGATTTTGA | 1.04 ± 0.037
TTGCAAGAGG | 1.02 ± 0.024
TTGCAAGGCG | 1 ± 0.062
TTGCAAGGTT | 1.01 ± 0.017
TTGCACAAAA | 1.033 ± 0.0078
TTGCAGCATG | 1.51 ± 0.68
TTGCAGTTC | 1.88 ± 1
TTGCCACTCT | 1.04 ± 0.064
TTGCCAGTGT | 0.996 ± 0.028
TTGCCGGGTT | 1.17 ± 0.17

Sequence | switch fluorescence ratio
TTGCCTAAGC | 0.974 ± 0.016
TTGCCTTTTG | 1.08 ± 0.16
TTGCGAGTC | 0.996 ± 0.062
TTGCGCCCCC | 1.104 ± 0.011
TTGCGGGCAG | 1.04 ± 0.032
TTGCGGGCCG | 0.967 ± 0.068
TTGCGTTTCC | 1.19 ± 0.23
TTGCGTTTCT | 1.08 ± 0.086
TTGCTAGGGA | 1.01 ± 0.055
TTGCTAGTTG | 0.994 ± 0.036
TTGCTATACG | 1.2 ± 0.13
TTGCTCAACT | 1 ± 0.026
TTGCTCCCAC | 1.62 ± 0.81
TTGCTCGCTC | 1.16 ± 0.084
TTGCTCGTCG | 1.04 ± 0.0046
TTGCTCTAGC | 1.03 ± 0.018
TTGCTGATGC | 1.02 ± 0.039
TTGCTGGAAG | 0.978 ± 0.035
TTGCTGTCGG | 0.985 ± 0.038
TTGCTGTTGC | 1.001 ± 0.0095
TTGCTTAAAC | 1.02 ± 0.025
TTGCTTACGG | 1.02 ± 0.013
TTGCTTACTT | 0.996 ± 0.019

Sequence | switch fluorescence ratio
TTGCTTCGGG | 0.968 ± 0.028
TTGCTTGCGG | 0.991 ± 0.041
TTGCTTGGGC | 1.02 ± 0.04
TTGCTTTGTA | 0.943 ± 0.018
TTGCTTTTAA | 0.991 ± 0.013
TTGGAAAGGG | 0.985 ± 0.016
TTGGAAAGGT | 1.1 ± 0.16
TTGGAAGTC | 1.04 ± 0.026
TTGGAAGTGG | 0.9995 ± 0.0088
TTGGAATGGT | 1.04 ± 0.029
TTGGAATTGA | 0.992 ± 0.012
TTGGACAGGG | 1 ± 0.02
TTGGACATGT | 0.989 ± 0.027
TTGGACTATA | 1.02 ± 0.043
TTGGACTGGT | 1.04 ± 0.039
TTGGAGAAAT | 1.05 ± 0.025
TTGGAGATAG | 1.07 ± 0.1
TTGGAGCGTG | 1.003 ± 0.0015
TTGGAGGAAT | 1.02 ± 0.014
